In patent publication WO2007124463A1 (dated 2007):

T1: mouse GLP-1 receptor (mouse, UniProt O35659 22-463)
T1 sequence (looked up): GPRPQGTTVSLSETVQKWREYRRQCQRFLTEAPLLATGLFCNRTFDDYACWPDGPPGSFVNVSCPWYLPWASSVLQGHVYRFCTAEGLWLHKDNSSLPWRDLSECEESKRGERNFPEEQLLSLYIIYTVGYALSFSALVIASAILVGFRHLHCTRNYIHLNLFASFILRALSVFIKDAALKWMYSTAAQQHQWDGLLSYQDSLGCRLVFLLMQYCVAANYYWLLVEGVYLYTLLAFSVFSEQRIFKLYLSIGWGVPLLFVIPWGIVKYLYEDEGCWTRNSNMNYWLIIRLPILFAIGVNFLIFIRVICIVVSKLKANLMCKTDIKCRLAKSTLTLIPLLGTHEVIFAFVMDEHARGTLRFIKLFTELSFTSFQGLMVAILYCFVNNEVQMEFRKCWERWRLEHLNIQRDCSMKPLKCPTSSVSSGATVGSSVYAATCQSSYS


Legend:
human GLP-1 receptor [1] = target: T2, human GLP-1 receptor (human, UniProt P43220 24-463); assay: cell-based or functional assay
mouse GLP-1 receptor = target: T1, mouse GLP-1 receptor; assay: cell-based or functional assay
human GLP-1 receptor [2] = target: T2, human GLP-1 receptor; assay: displacement of 0.2 nM 125I-GLP-1 from membranes of CHOK1 cells expressing human GLP-1 receptor
glucagon [3] = target: T3, glucagon (UniProt P01275 53-81); assay: cell-based or functional assay
glucagon [4] = target: T3, glucagon; assay: inhibition of 200 pM 125I-glucagon binding to crude membranes of cells expressing the glucagon receptor, dose range of AG159

T3 sequence (P01275 53-81): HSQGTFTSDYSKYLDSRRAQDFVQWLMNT

EC50 of activation, GLP-1R luciferase reporter assay (human GLP-1 receptor [1]) [nM] | EC50 of activation, GLP-1R luciferase reporter assay (mouse GLP-1 receptor) [nM] | IC50 (human GLP-1 receptor [2]) [nM] | IC50 of neutralization of glucagon stimulated luciferase reporter activity (cells expressing recombinant glucagon receptor, 0.1 nM glucagon) (glucagon [3]) [nM] | IC50 (glucagon [4]) [nM] | Binder
0.1 | 5 | 5 to 10 |  |  | AG159LC:GLP(A2G)-AG159 IgG2 (other, GLP-1 peptide-antibody fusion; It was produced in CHO cells; also called GLP(A2G)-AG159 HC; AG159LC:GLP-1-AG159 IgG2; not shown: human IgG2 heavy chain constant region) light: not shown heavy: HGEGTFTSDVSSYLEGQAAKEFIAWLVKGRGGSGSATGGSGSTASSGSGSATGGGGGGQVQLVESGGGVVQPGRSLRLSCAASGFTFSSYGMHWVRQAPGKGLEWVAVIYYDGSNKYYADSVKGRFTISRDITKNTLYLQMNSLRAEDTAVYYCARASRGFDYWGQGTLVTVSS
 |  |  | 4 | 0.2 | AG159 fully human anti-glucagon monoclonal antibody (antibody, V domains shown, not shown: a dimerising Fc or GST, also called AGl 59; AG159 Ab) VH: QVQLVESGGGVVQPGRSLRLSCAASGFTFSSYGMHWVRQAPGKGLEWVAVIYYDGSNKYYADSVKGRFTISRDITKNTLYLQMNSLRAEDTAVYYCARASRGFDYWGQGTLVTVSS VL: EIVLTQSPATLSLSPGDRATLSCRASQSVSSYLAWYQQKPGQAPRLLISDASNRATGIPARFSGSGSGTDFTLTISSLEPEDFAVYYCQQRSNWITFGQGTRLEIKR
0.1 | 5 | 5 to 10 |  |  | GLP(A2G)-AG159LC:AG159 IgG2 (other, GLP-1 peptide-antibody fusion; also called GLP(A26)-AG159LC:AG159 IgG2; not shown: which one cannot be told, Tab) light: not shown heavy: QVQLVESGGGVVQPGRSLRLSCAASGFTFSSYGMHWVRQAPGKGLEWVAVIYYDGSNKYYADSVKGRFTISRDITKNTLYLQMNSLRAEDTAVYYCARASRGFDYWGQGTLVTVSS
